Experimental data published in patent US20240376213A1 (YEDA RESEARCH AND DEVELOPMENT, published 2024).

Legend:
[1] = molecular target: T1, recombinant extracellular domain of mouse PD-1 (Sino Biological) (mouse, UniProt Q02242 25-169); assay: binding ELISA titration on recombinant protein (FIG. 3A)
T1 construct: extracellular domain; Coated on ELISA plates at 1 ug/mL; also called mPD-1; recombinant mouse PD-1
T1 sequence (looked up): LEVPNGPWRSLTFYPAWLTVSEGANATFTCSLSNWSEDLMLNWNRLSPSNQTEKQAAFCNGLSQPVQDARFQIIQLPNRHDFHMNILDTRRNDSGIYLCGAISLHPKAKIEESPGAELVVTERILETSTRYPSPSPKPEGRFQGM

[2] = molecular target: T2, mouse PD-1 on cells (HEK293 cells stably overexpressing mPD-1; PD-1+ CD8+ OT-1 T cells) (mouse, UniProt Q02242 25-288); assay: dual-binding FACS doublet assay, 1:1 mix of CFSE/CellTrace-stained HEK293 cells expressing each target (FIG. 4A)
T2 construct: whole, on cells; also called HEK293-mPD-1
T2 sequence (looked up): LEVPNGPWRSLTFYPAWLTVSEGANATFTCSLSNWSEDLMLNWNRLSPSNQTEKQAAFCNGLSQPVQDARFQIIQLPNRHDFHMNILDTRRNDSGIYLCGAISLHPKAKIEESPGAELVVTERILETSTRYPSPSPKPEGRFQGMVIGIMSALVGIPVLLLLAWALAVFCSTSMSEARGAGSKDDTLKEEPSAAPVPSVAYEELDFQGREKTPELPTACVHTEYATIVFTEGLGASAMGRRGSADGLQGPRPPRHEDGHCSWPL

[3] = molecular target: T3, mouse CLEC9A on cells (HEK293 cells stably overexpressing mCLEC9A; cDC1 among mouse splenocytes) (mouse, UniProt Q8BRU4 1-238); assay: as above
T3 construct: whole, on cells
T3 sequence (looked up): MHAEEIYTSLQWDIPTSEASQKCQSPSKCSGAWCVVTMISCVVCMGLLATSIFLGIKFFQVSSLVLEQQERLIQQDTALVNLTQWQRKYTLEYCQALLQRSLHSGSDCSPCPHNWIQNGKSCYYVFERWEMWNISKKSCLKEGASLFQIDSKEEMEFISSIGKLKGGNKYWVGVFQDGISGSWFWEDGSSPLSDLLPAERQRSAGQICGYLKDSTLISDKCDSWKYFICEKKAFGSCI

[4] = molecular target: T4, mouse XCR1 on cells (HEK293 cells stably overexpressing mXCR1; cDC1 among mouse splenocytes) (mouse, UniProt Q9R0M1 1-322); assay: FACS binding titration on HEK293-mXCR1 cells (FIG. 3B)
T4 construct: whole, on cells
T4 sequence (looked up): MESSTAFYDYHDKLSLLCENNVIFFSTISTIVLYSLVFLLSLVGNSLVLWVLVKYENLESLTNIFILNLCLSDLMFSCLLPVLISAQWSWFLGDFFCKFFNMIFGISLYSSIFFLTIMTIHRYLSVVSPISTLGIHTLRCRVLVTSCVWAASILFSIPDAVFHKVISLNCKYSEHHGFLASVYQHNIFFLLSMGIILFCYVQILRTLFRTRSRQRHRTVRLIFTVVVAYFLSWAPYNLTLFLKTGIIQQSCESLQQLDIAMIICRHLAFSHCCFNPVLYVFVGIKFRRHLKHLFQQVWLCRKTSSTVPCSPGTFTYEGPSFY

[5] = molecular target: T1, recombinant extracellular domain of …; assay: ELISA on recombinant mouse PD-1 (FIG. 3A)

Measured: binding result

B1: PD-1/CLEC9A BiSE (bispecific immune synapse engager; anti-mouse PD-1 clone RMP1-14 arm x anti-mouse CLEC9A clone 10B4 arm) (bispecific antibody)
heavy 1: not shown
light 1: DIVMTQGTLPNPVPSGESVSITCRSSKSLLYSDGKTYLNWYLQRPGQSPQLLIYWMSTRASGVSDRFSGSGSGTDFTLKISGVEAEDVGIYYCQQGLEFPTFGGGTKLELERTVAAPSVFIFPPSDEQLKSGTASVVCLLNNFYPREAKVQWKVDNALQSGNSQESVTEQDSKDSTYSLSSTLTLSKADYEKHKVYACEVTHQGLSSPVTKSFNRGEC
heavy 2: QIVESGGGLVQPKESLKISCTASGFTFSNAAIYWVRQTPGKGLEWVGRIRTRPSKYATDYADSVRGRFTISRDDSKSMVYLQMDNLRTEDTAMYYCTPRATEDVPFYWGQGVMVTVSSASVAAPSVFIFPPSDEQLKSGTASVVCLLNNFYPREAKVQWKVDNALQSGNSQESVTEQDSKDSTYSLSSTLTLSKADYEKHKVYACEVTHQGLSSPVTKSFNRGECDRSEPKSCDKTHTCPPCPAPELLGGPSVFLFPPKPKDTLMISRTPEVTCVVVDVSHEDPEVKFNWYVDGVEVHNAKTKPREEQYASTYRVVSVLTVLHQDWLNGKEYKCKVSNKALPAPIEKTISKAKGQPREPQVCTLPPSREEMTKNQVSLSCAVKGFYPSDIAVEWESNGQPENNYKTTPPVLDSDGSFFLVSKLTVDKSRWQQGNVFSCSVMHEALHNHYTQKSLSLSPGKSAWSHPQFEK
light 2: DIVMTQTPSSQAVSAGEKVTMNCKSSQSVLYDENKKNYLAWYQQKSGQSPKLLIYWASTGESGVPDRFIGSGSGTDFTLTISSVQAEDLAVYYCQQYYDFPPTFGGGTKLELKSSASTKGPSVFPLAPSSKSTSGGTAALGCLVKDYFPEPVTVSWNSGALTSGVHTFPAVLQSSGLYSLSSVVTVPSSSLGTQTYICNVNHKPSNTKVDKKVEPKSC
notes: Knobs-into-holes, CrossMab (CH1-CL swap on the DC arm), Fc N297A, human IgG1/kappa backbone; copies: 1 + 1 + 1 + 1
binds: [1] | [2] | [3]

B2: PD-1/XCR1 BiSE (bispecific immune synapse engager; anti-mouse PD-1 clone RMP1-14 arm x anti-mouse XCR1 clone MARX10 arm) (bispecific antibody)
heavy 1: not shown
light 1: B1 light 1
heavy 2: QVQLQQPGAELVKPGASVKLSCKASGYTFTNYWIHWMKQRPGQGLEWIGMIHPNSDNTKYNEKFKAKAILTVDKSSSTAYMQLSSLTSEDSAVYYCARFANDGAYWGQGTLVTVSSASVAAPSVFIFPPSDEQLKSGTASVVCLLNNFYPREAKVQWKVDNALQSGNSQESVTEQDSKDSTYSLSSTLTLSKADYEKHKVYACEVTHQGLSSPVTKSFNRGECDRSEPKSCDKTHTCPPCPAPELLGGPSVFLFPPKPKDTLMISRTPEVTCVVVDVSHEDPEVKFNWYVDGVEVHNAKTKPREEQYASTYRVVSVLTVLHQDWLNGKEYKCKVSNKALPAPIEKTISKAKGQPREPQVCTLPPSREEMTKNQVSLSCAVKGFYPSDIAVEWESNGQPENNYKTTPPVLDSDGSFFLVSKLTVDKSRWQQGNVFSCSVMHEALHNHYTQKSLSLSPGKSAWSHPQFEK
light 2: DVVVTQTPLSLPVSLGDPASISCKSSQSLVHSNGNTYLHWYLQKPGQSPKLLIYKISNRFSGVPDRFSGSGSGTDFTLKISRVEAEDLGVYFCSQNTHVPYTFGGGTKLEIKSSASTKGPSVFPLAPSSKSTSGGTAALGCLVKDYFPEPVTVSWNSGALTSGVHTFPAVLQSSGLYSLSSVVTVPSSSLGTQTYICNVNHKPSNTKVDKKVEPKSC
notes: as for B1
binds: [4] | [2] | [5]
